The values that follow are results of earlier work, collected in PMC8329052.

Broadly, the Kd is the constant that tells how readily two partners part at equilibrium.

The target of the data set is SARS-CoV-2 spike RBD RBD (SARS-CoV-2) (UniProt P0DTC2).

For “SBP1 (ACE2 alpha1 helix 23-mer peptide) 21-43 (from UniProt Q9BYF1)”, the Kd is 47 nM.
